Our source for the Kd values is article PMC10499821.

Sequences and labels used below:
B1: unnamed (parent)
chain 1: NNELSPVALRQMSCAAGTTQTACTDDNALAYYNTTKGGRFVLALLSDLQDLKWARFPKSDGTGTIYTELEPPCRFVTDTPKGPKVKYLYFIKGLNNLNRGMVLGSLAATVRLQ
chain 2: AEGIDIGEMPSYDLVL

Variants of B1 are the subject of the assay. Put plainly: fluorescence polarisation saturation. The following applies: with partner chain of the complex shown.
For chain 1 G100N G104D, the Kd is 20 µM.
